This is an account of results in patent US10941208B2, “Anti-MUC16 antibodies” (Regeneron Pharmaceuticals, Inc., priority 2016, dated 2021).

For assay [1], the target named is T1, soluble monomeric human MUC16 (hMUC16.mmh, last five SEA domains, SEQ ID: 1902) (Homo sapiens, UniProt Q8WXI7).
T1 construct: mmh (myc-myc-hexahistidine)
Put plainly: Surface plasmon resonance (BIACORE) binding to hMUC16 fragment at 25° C. On the set-up: key to ka / kd / KD / t 1/2: NB: No binding. As to conditions: for ka / kd / KD / t 1/2: 25° C.; for binding to soluble truncated human MUC16 protein via surface plasmon resonance (in words): truncated format encompassing the last five SEA domains. On the procedure: Antibodies were captured onto a CM4 or CM5 BIACORE sensor surface (GE Healthcare Life Sciences) derivatized via amine coupling with a monoclonal anti-human Fc antibody (GE, # BR-1008-39) or a monoclonal goat anti-mouse Fc antibody (GE, # BR-1008-38). Various concentrations of soluble monomeric human MUC16, in a truncated format encompassing the last five SEA domains of Mucin-16 (hMUC16.mmh, or MUC16 “nub”, SEQ ID: 1902) were injected over the anti-MUC16-antibody captured surface at a flow rate of 50 uL/minute (BIACORE T 200) or 30 uL/minute (BIACORE 4000). Antibody-reagent association was monitored for 4 min and the dissociation was monitored for 6-10 min. All binding studies were performed in HBS-ET buffer (0.01M HEPES pH 7.4, 0.15M NaCl, 0.05% v/v Surfactant P20).
Kinetic association (ka) and dissociation (kd) rate constants were determined by fitting the real-time sensorgrams to a 1:1 binding model using Scrubber 2.0c curve fitting software. Binding dissociation equilibrium constants (KD) and dissociative half-lives (t½) were calculated from the kinetic rate constants as: […]
Background: In SPR one partner is held on a chip, and binding of the other changes the refractive index at the surface.

Assay [2] has as its target T2, hMUC16 endogenously expressed on OVCAR-3 cell line (Homo sapiens, UniProt Q8WXI7).
T2 construct: OVCAR-3 cells endogenously express MUC-16; endogenous in cells; host or cells: OVCAR-3 (also luciferase-transduced OVCAR3-Luc)
Put plainly: Electrochemiluminescence (MSD) cell binding, OVCAR-3 vs SK-OV-3. As to conditions: cell-based binding assay. On the procedure:
The ability of anti-MUC16 antibodies to bind specifically to endogenously expressing MUC16 on the human ovarian carcinoma cell line (OVCAR-3) was evaluated via an electrochemiluminescence based detection assay (Meso Scale Discovery (MSD), Rockville, Md.). […] Detached cells were then washed once in 1×PBS supplemented with Ca^2+/Mg^2+ and counted (Cellometer Auto T4 cell counter, Nexcelom Bioscience, Lawrence, Mass.). Approximately 1.0×10^4 cells were plated in MULTI-ARRAY 96-well carbon electrode plates (MSD) and incubated for 1 h at 37° C. […] Next, serial dilutions of anti-MUC16 or control antibodies (0.85 pM-50 nM) and no-antibody buffer controls were added to the plate-bound cells and incubated for 1 h at room temperature (RT). […] Plate-bound antibodies were detected with a SULFO-TAG™-conjugated anti-human kappa light chain antibody (Regeneron) or a SULFO-TAG™-conjugated anti-mouse IgG antibody (Jackson Immunoresearch, West Grove, Pa.) for 1 h at RT. Post-wash, plates were developed with Read Buffer (MSD) according to manufacturer's protocol and luminescent signals were recorded with a SECTOR Imager 6000 (MSD) instrument.
Luminescence intensity, measured in relative light units (RLU), for the two cell lines was recorded to indicate the binding intensity of each antibody.

Where [3] appears, read: Human Fc anti-MUC16 antibodies (H1H), Table 5B.
Setting [4] is: Hybridoma anti-MUC16 antibodies (H1M, H2M, H3M), Table 5A.

T1 sequence (Q8WXI7 with tags, fused parts or gaps): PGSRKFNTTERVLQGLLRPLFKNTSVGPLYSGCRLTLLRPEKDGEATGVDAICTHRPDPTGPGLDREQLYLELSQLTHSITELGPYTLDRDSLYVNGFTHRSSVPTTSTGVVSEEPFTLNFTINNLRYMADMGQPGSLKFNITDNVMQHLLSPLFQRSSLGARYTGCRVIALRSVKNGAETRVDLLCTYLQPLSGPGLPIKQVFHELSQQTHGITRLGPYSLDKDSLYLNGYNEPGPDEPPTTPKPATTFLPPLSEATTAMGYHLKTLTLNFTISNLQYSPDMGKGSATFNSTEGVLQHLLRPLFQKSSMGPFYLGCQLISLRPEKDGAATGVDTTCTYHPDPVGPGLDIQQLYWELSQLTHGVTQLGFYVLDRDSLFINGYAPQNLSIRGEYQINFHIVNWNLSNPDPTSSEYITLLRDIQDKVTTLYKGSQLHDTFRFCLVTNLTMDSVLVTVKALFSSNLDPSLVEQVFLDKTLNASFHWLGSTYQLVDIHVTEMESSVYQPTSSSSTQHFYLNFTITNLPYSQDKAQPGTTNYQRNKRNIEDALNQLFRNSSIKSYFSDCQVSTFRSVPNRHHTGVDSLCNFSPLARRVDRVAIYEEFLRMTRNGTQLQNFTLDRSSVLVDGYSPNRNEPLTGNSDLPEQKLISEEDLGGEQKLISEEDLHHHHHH

B1: H1H8755P: anti-MUC16 antibody, human IgG1 Fc; HCVR/LCVR SEQ ID NOs: 2/10 (antibody, V domains shown)
VH: EVQLVESGGGLVQPGRSLRLSCAASGFTFNDYAMHWVRQSPGKGLEWVSGIDWNGGSIDYADSVKGRFTISRDTAKNSLYLQMNSLKVEDTALYYCAKDIGHWNYIGGMDVWGQGTTVTVSS
VL: DIQMTQSPSSLSASVGDRVTITCRASQSINIYLNWYQQKPGKAPKFLIYAASSLQTGVPSRFSGSGSGTDFTLTISSLEPEDFATYYCQHSYSTPPITFGQGTRLEIK
In assay [1] (setting [3]), B1 displayed a ka of 522000 M⁻¹ s⁻¹ and a kd of 0.000149 s⁻¹.

B2: H1M9528N: anti-MUC16 hybridoma antibody, mIgG1; HCVR/LCVR SEQ ID NOs: 234/242 (antibody, V domains shown)
VH: QMQLQESGPGLVKPSETLSLTCTVSGGSISSYYWNWIRQPPGKGLEWIGYIYYSGNNFNPSLKSRVTISVDTSKNQFSLKLSSVTAADTAVYYCARAFHWNYEFDYWGQGTLVTVSS
VL: EIVLTQSPGTLSLSPGERATLSCRASQSVSNNYLAWYQQKPGQAPRLLLYGASSRTTDIPDRFSGSGSGTDFTLTISRLEPEDFAVYYCQQYDNSPLTFGGGTKVEIR
For B2, the “specific binding to endogenous human MUC16 expressed on OVCAR-3 cells (in words)” value in assay [2] is “specific binding”. For the same molecule, in assay [1] (setting [4]), the KD entry is “NB”, the ka result is “NB”, the kd result is listed as “NB” and the “t 1/2” value is on record as “NB”. Further, the “binding to soluble truncated human MUC16 protein via surface plasmon resonance (in words)” value in assay [1] was “no binding”.

B3: H2M7135N: anti-MUC16 hybridoma antibody, mIgG2; HCVR/LCVR SEQ ID NOs: 298/306 (antibody, V domains shown)
VH: EVQLVESGGGLVQAGGSLRLSCAASGFTFSYHEMNWVRQAPGKGLEWVSYIGSRGTTKHYADPVKGRFTISRDNAKNSLYLQMNSLRAEDTAVYYCASEVGSILGYSMDVWGQGTTVTVSS
VL: DIQMTQSPSSLSASVGDRVTITCRASQSVSRYLNWCQQKPGKAPKLLTYAASSLQSGVPSRFSGSGSGTDFTLTISSLQPEDFAAYFCQQSYSTPPITFGQGTRLEIK
Consider B3, for which, in assay [1] (setting [4]), the ka came out at 51000 M⁻¹ s⁻¹ and the kd was 0.000218 s⁻¹.

B4: H1H8783P: anti-MUC16 antibody, human IgG1 Fc; HCVR/LCVR SEQ ID NOs: 50/58 (antibody, V domains shown)
VH: QVQLVESGGGVVQPGRSLRLSCAASGFTFSDHAMHWVRQAPGKGLEWVAVISYHGTDKQYGDSVKGRFTISRDNSKNALYLQMNSLRPEDTAMYYCAKDGYDFWNAYSLFDYWGQGTLVTVSS
VL: DIQMTQSPSSLSASVGDRVTITCRASQSISNYLNWYQQKPGKAPKLLIYTASSLLSGVPSRFSGSGSGTDFTLTISSLQPEDFATYYCQQSYSTPPITFGQGTRLEIK
Turning to B4, in assay [1] (setting [3]), the ka was 174000 M⁻¹ s⁻¹ and the kd came to 0.000107 s⁻¹.

B5: H1H8770P: anti-MUC16 antibody, human IgG1 Fc; HCVR/LCVR SEQ ID NOs: 34/42 (antibody, V domains shown)
VH: QVQLVESGGGVVQPGRSLRLSCAASGFTFSDHGMHWVRQAPGKGLEWVAVISYHGSNKHYADSVKGRFTISRDNSKNALYLQMNSLRPEDTAMYYCAKDGYDFWNGYSLFDYWGQGTLVTVSS
VL: DIQMTQSPSSLSASVGDRVTITCRASQSISNYLNWYQQKPGKAPKLLIYTASNLLSGVPSRFSGSGSGTDFTLTISSLQPEDFATYYCQQSYSTPPITFGQGTKLEIK
Turning to B5, in assay [1] (setting [3]), the ka stood at 247000 M⁻¹ s⁻¹ and the kd was found to be 0.000308 s⁻¹.

B6: H1H8808P: anti-MUC16 antibody, human IgG1 Fc; HCVR/LCVR SEQ ID NOs: 130/138 (antibody, V domains shown)
VH: QVQLVESGGGVVQPGRSLRLSCVASGFTFSNYGIHWVRQAPGKGLEWVAVISDDGSFKFYADSVKGRFTISRDNSKNTLYLQMNSLRVEDSAVYHCAKWQHNWNDGGFDYWGQGTLVTVSS
VL: EIVLTQSPDTLSLSPGERATLSCRASQSLSSNYLAWYRQKPGQAPRLLIYGISSRATGIPDRFSGSGSGTDFTLTISRLEPEDFAVYYCQQYGSSPWTFGQGTKVEIK
Consider B6, for which, in assay [1] (setting [3]), the ka turned out to be 4120 M⁻¹ s⁻¹ and the kd turned out to be 0.000216 s⁻¹.

B7: H3M9529N: anti-MUC16 hybridoma antibody, mIgG3; HCVR/LCVR SEQ ID NOs: 378/386 (antibody, V domains shown)
VH: QVQLQQWGAGLLKPSETLSLTCAVYGGSFSGFYWSWIRQPPGKGLEWIGEINHSGSAKYNPSLKNRVIISIDTSKNQFSLKLDSVTAADTAVYNCARQGWNFAIFDYWGQGTLVDVSS
VL: DIVMTQSPDSLAVSLGGRATINCKSSQSVLHSSYNKDHLAWYQQRPGQPPKLLIYWASTRESGVPDRFSGSGSGTDFTLTISSLQAEDVAVYYCQQYNILPPTFGQGTRVEIK
On to B7, for which the “specific binding to endogenous human MUC16 expressed on OVCAR-3 cells (in words)” value in assay [2] is recorded as “specific binding”. Further, in assay [1] (setting [4]), the KD result is on record as “NB”, the ka entry is reported as “NB”, the kd result is recorded as “NB” and the “t 1/2” value is recorded as “NB”. Moreover, in assay [1], the “binding to soluble truncated human MUC16 protein via surface plasmon resonance (in words)” value is on record as “no binding”.
